In PMC5539989:

Molecular target: GAL4 DBD-BRCA1 wild type (C-terminal region) (human) (UniProt P38398)
Assay: two-hybrid; mammalian two-hybrid: GAL4 DBD-BRCA1 as bait, VP16 AD-PALB2 as prey, co-transfected with the pG5Luc luciferase reporter and the phGR-TK Renilla control; read-out is luciferase activity above that of the BRCA1 construct alone

Sequence of UniProt P38398 (P38398 1396-1863): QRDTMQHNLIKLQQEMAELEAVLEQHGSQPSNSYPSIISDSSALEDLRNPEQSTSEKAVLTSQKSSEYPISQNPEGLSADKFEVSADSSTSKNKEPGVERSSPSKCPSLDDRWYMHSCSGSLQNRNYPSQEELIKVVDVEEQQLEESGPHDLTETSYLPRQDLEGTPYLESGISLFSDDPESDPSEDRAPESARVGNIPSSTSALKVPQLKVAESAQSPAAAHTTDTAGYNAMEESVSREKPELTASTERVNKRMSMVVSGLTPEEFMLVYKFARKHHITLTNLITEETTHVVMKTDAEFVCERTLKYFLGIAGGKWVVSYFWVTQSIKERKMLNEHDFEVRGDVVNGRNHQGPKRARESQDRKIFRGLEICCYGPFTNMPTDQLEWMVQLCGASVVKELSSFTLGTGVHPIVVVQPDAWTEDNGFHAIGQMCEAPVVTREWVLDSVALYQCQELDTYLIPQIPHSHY

B1: VP16 AD–PALB2 fusion protein (PALB2 aa 1–319) (domain or fragment)
chain: MDEPPGKPLSCEEKEKLKEKLAFLKREYSKTLARLQRAQRAEKIKHSIKKTVEEQDCLSQQDLSPQLKHSEPKNKICVYDKLHIKTHLDEETGEKTSITLDVGPESFNPGDGPGGLPIQRTDDTQEHFPHRVSDPSGEQKQKLPSRRKKQQKRTFISQERDCVFGTDSLRLSGKRLKEQEEISSKNPARSPVTEIRTHLLSLKSELPDSPEPVTEINEDSVLIPPTAQPEKGVDTFLRRPNFTRATTVPLQTLSDSGSSQHLEHIPPKGSSELTTHDLKNIRFTSPVSLEAQGKKMTVSTDNLLVNKAISKSGQLPTSS
- fold increase in luciferase activity with VP16-PALB2: 3.8 fold
